Consider three molecules from patent publication US20240254227A1 (Alector, published 2024).

In assay [1] the target is T1, human CD300LB on primary human macrophages (human, UniProt A8K4G0 18-201).
T1 sequence: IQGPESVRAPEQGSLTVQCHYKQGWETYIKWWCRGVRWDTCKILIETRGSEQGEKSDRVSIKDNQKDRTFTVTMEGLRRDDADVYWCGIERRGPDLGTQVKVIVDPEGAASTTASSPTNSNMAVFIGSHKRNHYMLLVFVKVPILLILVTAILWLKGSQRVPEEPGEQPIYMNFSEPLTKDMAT
Description: flow cytometry, primary human macrophages donor 1277, 10 ug/mL antibody, isotype control subtracted. The method, then: (§1) Human monocytes from various donors were isolated from whole blood using RosetteSep Human Monocyte Enrichment Cocktail (Stemcell technologies) and Ficoll centrifugation per manufacturer protocols. After lysing red blood cells with ACK lysing buffer, monocytes were resuspended in complete media (RPMI, 10% FBS, Pen/Strep, L-glutamine, HEPES, non-essential amino acid, Sodium pyruvate). To obtain macrophages from these isolated monocytes, 100 ng/ml human M-CSF and 8% v/v human serum were added to the cells for 5-7 days. Cells were counted on the day of the experiment and plated at 100,000 cells per well in a round-bottom 96 well plate. Cells were incubated with TruStain Fc block and 10 μg/mL antibody for 1 hour on ice before washing with 250 μL ice cold PBS twice. Cells were then incubated with the appropriate APC-conjugated secondary antibodies for 20 minutes in the dark on ice. Finally, cells were washed twice with ice cold FACS buffer and then resuspended in 100 μL FACS buffer containing 1% propidium iodide. Samples were immediately analyzed using a BD FACSCanto flow cytometer. The gMFI was calculated using FlowJo software minus the gMFI of the appropriate isotype control.

The target of assay [2] is T2, human CD300LB on primary human monocytes (human, UniProt A8K4G0 18-201).
T2 construct: Endogenous protein on primary cells; that the target is CD300LB is inferred from the antibodies being anti-CD300LB antibodies; also called Monocyte donor 1281; Monocyte donor 1282
T2 sequence: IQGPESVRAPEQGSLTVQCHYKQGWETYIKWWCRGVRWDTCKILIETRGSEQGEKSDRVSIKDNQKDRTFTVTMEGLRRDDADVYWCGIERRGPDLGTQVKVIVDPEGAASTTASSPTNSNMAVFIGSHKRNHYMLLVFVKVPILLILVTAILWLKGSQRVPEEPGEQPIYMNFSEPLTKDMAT
Description: flow cytometry, primary human monocytes donor 1283, 10 ug/mL antibody, isotype control subtracted. The method, then:
as §1

For assay [3], the target named is T2, human CD300LB on primary human monocytes. Description: flow cytometry, primary human monocytes donor 1282, 10 ug/mL antibody, isotype control subtracted. The method, then: as §1
For assay [4], the target named is T3, human CD300LB transiently expressed on HEK293 cells (human, UniProt A8K4G0 18-201).
T3 construct: CD300LB expression constructs'; also called huCD300LB HEK293
T3 sequence: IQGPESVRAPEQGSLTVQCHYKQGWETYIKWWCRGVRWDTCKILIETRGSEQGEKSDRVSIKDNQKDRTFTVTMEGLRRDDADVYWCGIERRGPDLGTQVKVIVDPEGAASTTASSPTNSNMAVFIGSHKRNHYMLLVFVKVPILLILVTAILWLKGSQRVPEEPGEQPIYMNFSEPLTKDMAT
Description: flow cytometry, transfected HEK293, 10 ug/mL, isotype subtracted. The method, then: In addition, supernatants or purified antibodies were tested for species crossreactivity by comparing the binding of human, mouse, and cynomolgous monkey CD300LB expressing cell lines. HEK293 were transfected with […] of human, mouse, and cyno CD300LB expression constructs using the Mirus system in 10 cm tissue culture dishes. Cells were then incubated for 24 hours in complete medium. Cells were harvested by incubation in TrypLE Express, then washed with PBS and labeled with 200 nM CFSE, 500 nM VioBlue, or a combination of the two to discriminate between human, mouse, and cyno CD300LB expressing cells. Cells were washed thoroughly with PBS containing 2% fetal bovine serum then resuspended at a total of 240,000 cells per well. Purified antibodies at 10 μg/mL were added and incubated for one hour before the cells were washed again and stained with an APC-labeled anti-human or anti-mouse secondary. Cells were then analyzed using a BD FACSCanto II. Antibodies were analyzed for specific binding to human, mouse, or cyno CD300LB by FlowJo software by gating on live cells, then the APC gMFI calculated for each labeled population minus the gMFI of the isotype control.

For assay [5], the target named is T4, huCD300LB-DAP12 fusion constitutively expressed on 293 Freestyle (Freestyle HEK) cells (human).
T4 construct: also called Human CD300LB-DAP12 chimera
Description: flow cytometry, stable Freestyle HEK cells. The method, then:
(§2) Other members of the human CD300 family share sequence homology with human CD300LB. Thus, counter screens against binding of the anti-CD300LB antibodies to huCD300A, huCD300C, huCD300LD, huCD300E, huCD300LF, and huCD300G by stable overexpression in Freestyle HEK cells (generation of which is described above) were performed as follows. Cells were counted and labeled with 200 nM CFSE, 500 nM VioBlue, or a combination of the two to discriminate between CD300LB, Parental cells, and the other CD300 family members. Cells were washed thoroughly with PBS containing 2% fetal bovine serum then resuspended at a total of 240,000 cells per well. Hybridoma supernatants (100 L) or purified antibodies at various concentrations were added and incubated for one hour before the cells were washed twice again and stained with an APC-labeled anti-human or anti-mouse secondary antibody. Cells were then analyzed using a BD FACSCanto II. Anti-CD300LB antibodies were analyzed for specific binding to human CD300LB by FlowJo software by gating on live cells, then the APC geometric mean fluorescence intensity (gMFI) calculated for each labeled population. The results are shown in […]
(§3) Freestyle HEK cells were transfected with huCD300A, huCD300C, huCD300D, huCD300E, and huCD300G separately. Then, five stable cell lines from these transfections were pooled; the combined cells are herein known as CD300A/C/D/E/G. Freestyle HEK cells were also transfected with huCD300LB and huCD300F. All transfected cells were then tested for binding of anti-CD300LB antibodies of the present disclosure.
Target sequence in this assay (chain, as listed by the source limits assumed): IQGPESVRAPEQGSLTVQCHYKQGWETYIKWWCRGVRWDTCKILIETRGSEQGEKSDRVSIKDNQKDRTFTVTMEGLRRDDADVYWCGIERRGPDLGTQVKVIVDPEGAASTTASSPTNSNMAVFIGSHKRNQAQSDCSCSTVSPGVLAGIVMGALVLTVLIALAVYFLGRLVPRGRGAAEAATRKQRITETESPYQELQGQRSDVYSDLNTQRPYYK

Assay [6] concerns the target T5, huCD300F constitutively expressed on 293 Freestyle (Freestyle HEK) cells (human, UniProt Q8TDQ1 20-290).
T5 construct: also called huCD300LF; Human CD300F
T5 sequence: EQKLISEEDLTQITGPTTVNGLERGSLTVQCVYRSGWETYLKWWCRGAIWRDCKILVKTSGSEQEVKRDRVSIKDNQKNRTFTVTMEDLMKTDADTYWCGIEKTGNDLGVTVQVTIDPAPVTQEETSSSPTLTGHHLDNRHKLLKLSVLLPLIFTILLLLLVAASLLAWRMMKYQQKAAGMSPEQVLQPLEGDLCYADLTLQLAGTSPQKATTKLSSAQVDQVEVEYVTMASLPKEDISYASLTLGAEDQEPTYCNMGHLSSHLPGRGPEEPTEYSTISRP
Description: flow cytometry, stable Freestyle HEK cells. The method, then: as §2, §3

The target of assay [7] is T2, human CD300LB on primary human monocytes. Description: flow cytometry, primary human monocytes donor 1284, 10 ug/mL antibody, isotype control subtracted. The method, then: as §1
Assay [8] concerns the target T1, human CD300LB on primary human …. Description: flow cytometry, primary human macrophages donor 1275, 10 ug/mL antibody, isotype control subtracted. The method, then: as §1
Assay [9] shares this target. Description: flow cytometry, primary human macrophages donor 1278, 10 ug/mL antibody, isotype control subtracted. The method, then:
as §1

In assay [10] the target is T2, human CD300LB on primary human monocytes. Description: flow cytometry, primary human monocytes donor 1281, 10 ug/mL antibody, isotype control subtracted. The method, then: as §1
The target of assay [11] is T6, recombinant human CD300LB overexpressed on Jurkat cells (human, UniProt A8K4G0 18-201).
T6 construct: also called huCD300LB; huCD300LB-expressing Jurkat cells
T6 sequence: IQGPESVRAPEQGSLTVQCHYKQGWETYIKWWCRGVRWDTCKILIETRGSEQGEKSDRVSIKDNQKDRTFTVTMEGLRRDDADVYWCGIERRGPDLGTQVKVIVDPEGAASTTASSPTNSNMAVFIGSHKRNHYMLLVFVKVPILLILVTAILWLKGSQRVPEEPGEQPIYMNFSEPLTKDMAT
Description: flow cytometry on Jurkat cells overexpressing huCD300LB, apparent KD (Drake & Klakamp fit). The method, then: Purified anti-CD300LB antibodies of the present disclosure were evaluated for their binding affinity to either Jurkat cells overexpressing recombinant huCD300LB or BaF/3 cells overexpressing recombinant muCD300LB. Binding of anti-CD300LB antibodies to the cells was determined as follows. Cells were harvested, washed, and labeled with propidium iodide for viability discrimination. After washing the cells with PBS, 1×10⁵ cells were aliquoted per well in 96-well U-bottom plates and incubated with 100 μL of purified anti-CD300LB antibody at various concentrations in FACS buffer (PBS+2% FBS). After this primary incubation, the supernatant was removed via centrifugation, the cells washed twice with 150 μL of ice-cold FACS buffer, and then incubated with the appropriate secondary antibody on ice for 30 minutes. Following the secondary antibody incubation, the cells were again washed twice with ice-cold FACS buffer and resuspended in a final volume of 200 L FACS buffer. Flow cytometry analysis was then performed using the FACSCanto system (BD Biosciences).
To determine affinity, antibodies at increasing concentrations were used to stain Jurkat cells overexpressing huCD300LB and geometric MFI values measured by the flow cytometer were analyzed on Prism (Graphpad) software.

Assay [12] addresses T7, murine CD300LB stably expressed on Jurkat cells (mouse, UniProt Q3U497 18-209).
T7 construct: also called muCD300LB; mouse CD300LB
T7 sequence: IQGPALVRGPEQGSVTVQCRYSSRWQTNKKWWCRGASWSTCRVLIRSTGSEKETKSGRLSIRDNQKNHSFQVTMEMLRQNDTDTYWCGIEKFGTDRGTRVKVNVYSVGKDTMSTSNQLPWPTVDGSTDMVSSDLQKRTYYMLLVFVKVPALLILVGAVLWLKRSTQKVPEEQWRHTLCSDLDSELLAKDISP
Description: flow cytometry, stable Jurkat cells.

In assay [13] the target is T4, huCD300LB-DAP12 fusion constitutively …. Description: flow cytometry, geometric mean (APC-A), FreeStyle HEK cells expressing huCD300LB. The method, then: as §2
Assay [14] deals with T7, murine CD300LB stably expressed on …. Description: flow cytometry, stable Jurkat cells, supernatant or 10 ug/mL, isotype subtracted. The method, then: (§4) Purified anti-CD300LB antibodies of the present disclosure were also evaluated for species cross-reactivity to mouse and human CD300LB stably expressed in Jurkat cells (generation of which is described above). Cells were counted and labeled with 200 nM CFSE, 500 nM VioBlue, or a combination of the two to discriminate between human CD300LB, Parental cells and mouse CD300LB. Cells were washed thoroughly with PBS containing 2% fetal bovine serum then resuspended at a total of 240,000 cells per well. Hybridoma supernatants (100 L) or purified antibodies at 10 μg/mL were added and incubated for one hour before the cells were washed again and stained with an APC-labeled anti-human or anti-mouse secondary. Cells were then analyzed using a BD FACSCanto II. Antibodies were analyzed for binding to mouse or human CD300LB by FlowJo software by gating on live cells, then the APC gMFI calculated for each labeled population by subtraction of the gMFI of the appropriate isotype control.

The target in assay [15] is T6, recombinant human CD300LB overexpressed …. The description is as above. The method, then: as §4

B1: anti-CD300LB antibody CD-09 (antibody, V domains shown)
VH: QVQLVQSGAEVKKPGASVKVSCKASGYTFTTYAVHWVRQAPGQGLEWMGIINPNSGGTNYAQKFQGRVTMTRDTSTSTVYMELSSLRSEDTAVYYCARDIVPMNNFYNYYYGMDVWGQGTTVTVSS
VL: DIQMTQSPSSLSASVGDRVTITCRASQSISSYLNWYQQKPGKAPKLLIYATSTLQSGVPSRFSGSGSGTDFTLTISSLQPEDFATYYCQQSYRIPYTFGQGTKVEIK
As for B1, the gMFI in assay [1] was 15700 gMFI; in [2], 2580 gMFI; in [3] it was 3070 gMFI; in assay [4] it was 445 gMFI; in assay [5], 37900 gMFI; in assay [6] it was 28 gMFI. Further, the gMFI in [7] amounted to 1040 gMFI; in [8], 19700 gMFI; in assay [9], 13300 gMFI; in assay [10], 1370 gMFI. The binding result in assay [6] was “no binding”. In addition, in assay [11], the Kd came out at 109 nM.

B2: anti-CD300LB antibody CD-08 (antibody, V domains shown)
VH: EVQLLESGGGLVQPGGSLRLSCAASGFTFSNAWMSWVRQAPGKGLEWVSVISGSGGRTYYADSVKGRFTISRDNSKNTLYLQMNSLRAEDTAVYYCARDGTTVAPKGMDVWGQGTTVTVSS
VL: DIQMTQSPSSLSASVGDRVTITCQASQDINNYVNWYQQKPGKAPKLLIYAASNLQSGVPSRFSGSGSGTDFTLTISSLQPEDFATYYCQQSYSPPYTFGQGTKLEIK
With B2, the gMFI in [1] came out at 2800 gMFI; in assay [2], 1920 gMFI; in assay [3] it was 4470 gMFI; in [4] it was 774 gMFI; in assay [5], 56800 gMFI; in [6], 212 gMFI. The gMFI came to 1400 gMFI in assay [7], 3580 gMFI in [8], 135000 gMFI in [9] and 2970 gMFI in assay [10]. Also, the binding result in assay [6] is listed as “no binding”. In addition, the Kd in assay [11] worked out at 45 nM.

B3: anti-CD300LB antibody CD-04 (antibody, V domains shown)
VH: QVQLQQSGAELVRPGASVTLSCRASGYTFTDFEMHWVKQTPLHGLEWIGAIAPETGGTAYNQKFKGKAILTADKSSSTAYVELRSLTSEDSAVYFCTRLGGMDYWGQGTSVTVSS
VL: DVVMTQTPLSLPVSLGDQASISCRSSQTLVHNNGNTYLYWYLQKPGQSPKLLIYQVSNRFFGVPDRFSGSGSGTDFTLKISRVEAEDLGLYFCSQSTHVPWTFGGGTKLEIK
B3: the binding result in assay [12] was “no binding (tested: 10 ug/mL)”; in assay [13], “no binding”. Moreover, the gMFI in [14] was 18 gMFI; in [15], 193 gMFI; in [4], 207 gMFI; in assay [5] it was 190 gMFI. Also, the Kd in [11] came out at 32 nM.
